Changes are numbered by the printed parent chain. Names and notes keep the numbering of the source.

Sequences and labels used below:
T1: human CD19 (human, UniProt P15391 20-556)
T1 construct: also called B-cell surface antigen B4; B-cell antigen CD19
T1 sequence: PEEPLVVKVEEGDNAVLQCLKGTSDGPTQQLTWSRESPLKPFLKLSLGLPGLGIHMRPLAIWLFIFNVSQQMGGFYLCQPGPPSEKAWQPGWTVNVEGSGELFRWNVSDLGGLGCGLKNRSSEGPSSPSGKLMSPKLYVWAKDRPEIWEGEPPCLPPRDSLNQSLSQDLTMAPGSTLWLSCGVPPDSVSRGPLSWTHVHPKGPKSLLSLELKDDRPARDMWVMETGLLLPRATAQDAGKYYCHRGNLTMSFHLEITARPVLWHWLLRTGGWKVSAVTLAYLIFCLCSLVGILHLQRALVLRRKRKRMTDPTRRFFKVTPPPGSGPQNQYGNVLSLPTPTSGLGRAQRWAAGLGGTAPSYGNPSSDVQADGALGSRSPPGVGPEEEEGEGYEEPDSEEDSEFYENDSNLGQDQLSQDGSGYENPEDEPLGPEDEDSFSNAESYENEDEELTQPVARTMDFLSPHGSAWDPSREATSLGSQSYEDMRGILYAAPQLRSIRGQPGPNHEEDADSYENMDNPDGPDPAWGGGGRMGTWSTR

B1: H1 / L1.55 (antibody, V domains shown)
VH: EVQLVESGGGLVKPGGSLKLSCAASGYTFTSYVMHWVRQAPGKGLEWIGYINPYNDGTKYNEKFQGRVTISSDKSISTAYMELSSLRSEDTAMYYCARGTYYYGSRVFDYWGQGTLVTVSS
VL: DIVMTQSPATLSLSPGERATLSCRSSKSLLNSNGNTYLYWFQQKPGQSPQLLIYRMSYLASGVPDRFSGSGSGTEFTLTISSLEPEDFAVYYCMQHLEYPFTFGAGTKLEIK
notes: vs H1L1 (Kabat): VL N53Y; also called 4G7 H1_L1.55
B2: H1.52 / L1.163 (antibody, V domains shown)
VH: B1 VH with S105T
VL: B1 VL with L30Q, S32A, G34S, Y58N, A60N, F101I
notes: vs H1L1 (Kabat): VH S100cT; VL L27cQ/S27eA/G29S/A55N/F96I; also called 4G7 H1.52_L1.163
B3: H1 / L1.96 (antibody, V domains shown)
VH: B1 VH
VL: B1 VL with Y58N, A60N
notes: vs H1L1 (Kabat): VL A55N; also called 4G7 H1_L1.96
B4: H1.52 / L1.161 (antibody, V domains shown)
VH: B1 VH with S105T
VL: B1 VL with L30Q, S32V, G34S, Y58N, A60N, F101I
notes: vs H1L1 (Kabat): VH S100cT; VL L27cQ/S27eV/G29S/A55N/F96I; also called 4G7 H1.52_L1.161
B5: H1.201 / L1.163 (antibody, V domains shown)
VH: B1 VH with D56S, S105T
VL: B1 VL with L30Q, S32A, G34S, Y58N, A60N, F101I
notes: vs H1L1 (Kabat): VH D55S/S100cT; VL L27cQ/S27eA/G29S/A55N/F96I; also called 4G7 H1.201_L1.163
B6: H1.191 / L1.163 (antibody, V domains shown)
VH: B1 VH with K59E, S105T
VL: B1 VL with L30Q, S32A, G34S, Y58N, A60N, F101I
notes: vs H1L1 (Kabat): VH K58E/S100cT; VL L27cQ/S27eA/G29S/A55N/F96I; also called 4G7 H1.191_L1.163
B7: H1 / L1.64 (antibody, V domains shown)
VH: B1 VH
VL: B1 VL with Y58N, F101I
notes: vs H1L1 (Kabat): VL F96I; also called 4G7 H1_L1.64
B8: H1.191 / L1.162 (antibody, V domains shown)
VH: B1 VH with K59E, S105T
VL: B1 VL with L30Q, S32A, G34A, Y58N, A60N, F101I
notes: vs H1L1 (Kabat): VH K58E/S100cT; VL L27cQ/S27eA/G29A/A55N/F96I; also called 4G7 H1.191_L1.162
B9: H1.52 / L1.162 (antibody, V domains shown)
VH: B1 VH with S105T
VL: B1 VL with L30Q, S32A, G34A, Y58N, A60N, F101I
notes: vs H1L1 (Kabat): VH S100cT; VL L27cQ/S27eA/G29A/A55N/F96I; also called 4G7 H1.52_L1.162
B10: H1 / L1.67 (antibody, V domains shown)
VH: B1 VH
VL: B1 VL with Y58N, F101V
notes: vs H1L1 (Kabat): VL F96V; also called 4G7 H1_L1.67
B11: H1.201 / L1.164 (antibody, V domains shown)
VH: B1 VH with D56S, S105T
VL: B1 VL with L30Q, S32A, Y58N, A60N, F101I
notes: vs H1L1 (Kabat): VH D55S/S100cT; VL L27cQ/S27eA/A55N/F96I; also called 4G7 H1.201_L1.164
B12: H1 / L1.68 (antibody, V domains shown)
VH: B1 VH
VL: B1 VL with Y58N, F101N
notes: vs H1L1 (Kabat): VL F96N; also called 4G7 H1_L1.68
B13: H1 / L1.92 (antibody, V domains shown)
VH: B1 VH
VL: B1 VL with Y58N, A60L
notes: vs H1L1 (Kabat): VL A55L; also called 4G7 H1_L1.92
B14: H1 / L1.80 (antibody, V domains shown)
VH: B1 VH
VL: B1 VL with Y39F, Y58N
notes: vs H1L1 (Kabat): VL Y34F; also called 4G7 H1_L1.80
B15: H1.201 / L1.162 (antibody, V domains shown)
VH: B1 VH with D56S, S105T
VL: B1 VL with L30Q, S32A, G34A, Y58N, A60N, F101I
notes: vs H1L1 (Kabat): VH D55S/S100cT; VL L27cQ/S27eA/G29A/A55N/F96I; also called 4G7 H1.201_L1.162
B16: H1.202 / L1.163 (antibody, V domains shown)
VH: B1 VH with D56E, S105T
VL: B1 VL with L30Q, S32A, G34S, Y58N, A60N, F101I
notes: vs H1L1 (Kabat): VH D55E/S100cT; VL L27cQ/S27eA/G29S/A55N/F96I; also called 4G7 H1.202_L1.163
B17: H1.202 / L1.162 (antibody, V domains shown)
VH: B1 VH with D56E, S105T
VL: B1 VL with L30Q, S32A, G34A, Y58N, A60N, F101I
notes: vs H1L1 (Kabat): VH D55E/S100cT; VL L27cQ/S27eA/G29A/A55N/F96I; also called 4G7 H1.202_L1.162

This assay concerns the target T1, human CD19. Put plainly: binding affinity relative to the parent H1L1 mAb (Example 5); assay and format not named on the sheet.
Regarding B1, the Fold change binding worked out at 1.58 fold.
Turning to B2, the Fold change binding came out at 3.74 fold.
B3: the Fold change binding came to 1.58 fold.
Regarding B4, the Fold change binding is 3.18 fold.
As for B5, the figure is 3.87 fold; as for B6, 5.32 fold; as for B7, 1.8 fold.
On to B8, for which the Fold change binding is 3.35 fold.
As for B9, the figure is 5.57 fold; as for B10, 1.73 fold.
For the molecule B11, the Fold change binding amounted to 4.41 fold.
B12: the Fold change binding worked out at 2.12 fold.
On to B13, for which the Fold change binding was found to be 1.54 fold.
For the molecule B14, the Fold change binding was 1.62 fold.
As for B15, the figure is 3.97 fold; as for B16, 3.57 fold.
Take B17: the Fold change binding amounted to 4.32 fold.

The values are drawn from US20100272723A1 (Xencor, published 2010).
